Measurements taken from publication doi:10.1101/714097 (bioRxiv, 2019).

B1: InvG (natural protein)
chain: SEKIPVTGSGFVAKDDSLRTFFDAMALQLKEPVIVSKMAARKKITGNFEFHDPNALLEKLSLQLGLIWYFDGQAIYIYDASEMRNAVVSLRNVSLNEFNNFLKRSGLYNKNYPLRGDNRKGTFYVSGPPVYVDMVVNAATMMDKQNDGIELGRQKIGVMRLNNTFVGDRTYNLRDQKMVIPGIATAIERLLQGEEQPLGNIVSSEPPAMPAFSANGEKGKAANYAGGMSLQEALKQNAAAGNIKIVAYPDTNSLLVKGTAEQVHFIEMLVKALDVAKRHVELSLWIVDLNKSDLERLGTSWSGSITIGDKLGVSLNQSSISTLDGSRFIAAVNALEEKKQATVVSRPVLLTQENVPAIFDNNRTFYTKLIGERNVALEHVTYGTMIRVLPRFSADGQIEMSLDIEDGNDKTPQSDTTTSVDALPEVGRTLISTIARVPHGKSLLVGGYTRDANTDTVQSIPFLGKLPLIGSLFRYSSKNKSNVVRVFMIEPKEIVDPLTPDASESVNNILKQSGAWSGDDKLQKWVRVYLDRGQEAIK
B2: PrgH (natural protein)
chain: METSKEKTITSPGPYIVRLLNSSLNGCEFPLLTGRTLFVVGQSDALTASGQLPDIPADSFFIPLDHGGVNFEIQVDTDATEIILHELKEGNSESRSVQLNTPIQVGELLILIRPESEPWVPEQPEKLETSAKKNEPRFKNGIVAALAGFFILGIGTVGTLWILNSPQRQAAELDSLLGQEKERFQVLPGRDKMLYVAAQNERDTLWARQVLARGDYDKNARVINENEENKRISIWLDTYYPQLAYYRIHFDEPRKPVFWLSRQRNTMSKKELEVLSQKLRALMPYADSVNITLMDDVTAAGQAEAGLKQQALPYSRRNHKGGVTFVIQGALDDVEILRARQFVDSYYRTWGGRYVQFAIELKDDWLKGRSFQYGAEGYIKMSPGHWYFPSPL
B3: PrgK (natural protein)
chain: CKDKDLLKGLDQEQANEVIAVLQMHNIEANKIDSGKLGYSITVAEPDFTAAVYWIKTYQLPPRPRVEIAQMFPADSLVSSPRAEKARLYSAIEQRLEQSLQTMEGVLSARVHISYDIDAGENGRPPKPVHLSALAVYERGSPLAHQISDIKRFLKNSFADVDYDNISVVLSERSDAQLQAPGTPVKRNSFATSWIVLIILLSVMSAGFGVWYYKNHYARNKKGITADDKAKSSNE
B4: SpaQ (natural protein)
chain: MDDLVFAGNKALYLVLILSGWPTIVATIIGLLVGLFQTVTQLQEQTLPFGIKLLGVCLCLFLLSGWYGEVLLSYGRQVIFLALAKG
B5: SpaP (natural protein)
chain: MGNDISLIALLAFSTLLPFIIASGTCFVKFSIVFVMVRNALGLQQIPSNMTLNGVALLLSMFVMWPIMHDAYVYFEDEDVTFNDISSLSKHVDEGLDGYRDYLIKYSDRELVQFFENAQLKRQYGEETETVKRDKDEIEKPSIFALLPAYALSEIKSAFKIGFYLYLPFVVVDLVVSSVLLALGMMMMSPVTISTPIKLVLFVALDGWTLLSKGLILQYMDIAT

Target: the molecule itself
Experiment: cryo-EM structure
B1 was tested, and the “stoichiometry N” value was 15. With B2 the “stoichiometry N” value was 23. With B3 the “stoichiometry N” value was 23.

Target: the molecule itself
Experiment: cryo-EM structure
Remark: another data set of the same source
B1 was tested, and the “stoichiometry N” value was 16. B4 was tested, and the “stoichiometry N” value was 4. For B5, the “stoichiometry N” value was 5. B2 was tested, and the “stoichiometry N” value was 24. For B3, the “stoichiometry N” value was 24.
